From US20190112362A1 (published 2019) come the findings set out here.

For the assay, the target named is Human Tau monomer (recombinant 2N4R isoform, amino acids 2-441) (human, UniProt P10636 2-441). Kind of assay: SPR.
Chain of Human Tau monomer (recombinant 2N4R isoform, amino acids 2-441) (P10636 other isoform, or with tags, fused parts or gaps): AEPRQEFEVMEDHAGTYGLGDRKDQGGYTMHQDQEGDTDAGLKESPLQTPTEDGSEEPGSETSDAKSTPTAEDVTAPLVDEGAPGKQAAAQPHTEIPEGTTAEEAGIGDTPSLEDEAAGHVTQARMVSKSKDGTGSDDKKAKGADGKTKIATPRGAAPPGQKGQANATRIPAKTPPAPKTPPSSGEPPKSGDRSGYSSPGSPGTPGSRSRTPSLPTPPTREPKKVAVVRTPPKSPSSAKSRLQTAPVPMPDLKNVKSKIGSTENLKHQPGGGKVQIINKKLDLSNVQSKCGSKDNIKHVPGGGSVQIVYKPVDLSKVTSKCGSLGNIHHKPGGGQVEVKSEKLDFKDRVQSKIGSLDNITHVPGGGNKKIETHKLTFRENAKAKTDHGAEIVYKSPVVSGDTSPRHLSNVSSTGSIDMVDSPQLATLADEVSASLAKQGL

For the molecule EDLHSNADTYFL [hu37D3.v29.8], the Kd was determined as 40.9 nM.

A word on the Kd: it is the free concentration of one partner at which half of the binding sites on the other are occupied at equilibrium, for simple one-to-one binding.
